Assay results taken from patent US20230303681A1 (published 2023).
Numbering of substitutions follows the chain as printed. Values joined by “and” are separate entries in the source; they are usually repeats but may differ in a detail not shown here. Equal entries are not always repeated.

B1: anti-TMEM106B antibody TM-35 (antibody, V domains shown)
VH: QVQLQQSGPELVRPGTSVKISCKAPGYTFTRHWMQWVRQRPGQGLEWIGEILPGSNNIYYNEKVKGKATLTVDTSSSTSYMQLSSLTSEDSAVYFCARSLYDYDGVFAYWGQGTLVTVSA
VL: DVLMTQIPLSLPVSLGDQASISCRSSQSIVHRNGNTYLEWYLQKPGQSPKLLIYKVSNRFSGVPDRFSGSGSGTDFTLKISRVEAEDLGVYYCFQGSHVPYTFGGGTKLEIK
B2: anti-TMEM106B antibody TM-48 (antibody, V domains shown)
VH: QVQLQQSGPELVKPGASVKLSCKASGYTFTSYDINWVKQRPGQGLEWIGWIYPRDGNTQYIEKLKGKATLTVDTSSSTAYMELHSLTSEDSAVYFCARWIFYAMDYWGQGTSVTVSS
VL: B1 VL with I7T, D17N, R32G, V99L
B3: anti-TMEM106B antibody TM-46 (antibody, V domains shown)
VH: QVQLQQSGADLVKPGASVKISCKASGYAFSSFWMNWVKLRPGKGLEWIGQIYPGDGDTDYNGKFKDKATLTADTSSNTAYMQLSRLTSEDSAVYFCARGDGFSYFDYWGQGTILTVSS
VL: QIVLTQSPVIMSASPGERVTMTCCASSRVNYMHWYQQKSGSYPKRWIYDTSKLASGVPGRFSGSGSGTSYSLTISSMEAEDAATYYCQQWSSNPPTFGGGTKLEIK
B4: anti-TMEM106B antibody TM-34 (antibody, V domains shown)
VH: EVQLVESGGGLVKPGGSLKLSCAASGFSFSDSGMDWVRQAPEKGLEWFAYISSGSSTTHYADTVKGRFIISRDNAKNTLFLQMTSLRSEDTAMYYCVRRDGNYWYFDVWGTGTTVTVSS
VL: QIVLSQSPVILSASPGEKVTMTCRATSSVTYMHWYQLKPGSSPKPWIYATSNLASGVPARFSGSGSGTSYSLTISRVEAEDAATYYCQQWSSNPYTFGGGTKLEIK
B5: anti-TMEM106B antibody TM-9 (antibody, V domains shown)
VH: EVQLVESGGDLVKPGGSLKLSCVASGFTFSGYGMSWVRQTPDKRLEWVATISSGSFYIYYPDSVKGRLTVSRDNAKNTLYLQMSSLKSEDTAIYYCARQNFYYGCEDYWGQGTTLTVSS
VL: DIVMTQAAFSNPVTLGTSASISCRSSKSLLHSNGITYLYWYLQKPGQSPQLLIYQMSNLASGVPNRFSSSGSGTDFTLRISRVEAEDVGVYYCAQNLELPWTFGGGTKLEIK
B6: anti-TMEM106B antibody TM-7 (antibody, V domains shown)
VH: EVQLQQSGPVLVKPGPPVKISCKASGFTFTDYYIHWVKLSHGKSLEWIGLVYPYNGDTDYNQKFKGKATLTVDTSSSTAYMELNSLTSEDSAVYYCARTYYANSPDYWGQGTTVTVSS
VL: DIVMTQSPSSLSVSAGEKVTMSCKSSQSLLNSGNQRNYLAWYQQKPGQPPKLLIYGASTRESGVPDRFTGSGSGTDFTLTISNVQAEDLAVYYCQNDHSYPLTFGAGTKLELK
B7: anti-TMEM106B antibody TM-47 (antibody, V domains shown)
VH: QVQLKESGPVLVAPSQSLSITCTVSGFSLTNYGVHWVRQPPGKGLEWLGVIWAGGNTNYNSALMSRLSISKDNSKSQVFLKMNSLQTDDTAMYYCAKEAKLLRSYAMDYWGQGTSVTVSS
VL: B6 VL with S12T, S14T, R36K, A40T, G56W, N83S, H98Y, L112I
notes: mouse IgG from hybridoma
B8: anti-TMEM106B antibody TM-51 (antibody, V domains shown)
VH: QVQLQQPGAELVKPGASVKLSCKASGYTFTTYWIDWVKQRPGQGLEWIGNMFPGSSRTNYNEKFKSRATLTVDTSSSTAYMQLSSLTSDDSAVYYCARKEGLWTYGYDGGAWFAYWGQGTLVTVSA
VL: DIVMSQSPSSLAVSVGEKVTMSCKSSQSLRNSRTRKNYLAWYQQKPGQSPKLLIYWASTRESGVPDRFTGSGSGTDFTLTISSVQAEDLAIYYCKQSYNLLTFGAGTKLELK
notes: mouse IgG from hybridoma
B9: anti-TMEM106B antibody TM-42 (antibody, V domains shown)
VH: QVQLQQSGAELAKPGASVKLSCKASGYTFTNYWMHWVKKRPGQGLEWIGYINPSSGYTKYNQKFKDKATLTADKSSNTAYMQLSSLTYEDSAVYYCTREGGSISDWYFDVWGTGTTVTVSS
VL: DIVMTQAAPSLPVTPGESVSISCRSSKSLLHSNGNTYLYWFLQRPGQSPQLLIYRMSNLASGVPDRFSGSGSGTAFTLRISRVEAEDVGVYYCMQHLEYPYTFGGGTKLEIK
B10: anti-TMEM106B antibody TM-39 (antibody, V domains shown)
VH: HVQRQQSGTELAKPGASVKLSCKTSGYTFTDYWMHWIKQRPGQGLEWIGFINPSSGYTKYNQNFKDKATLTADKSSSTAYMQLSSLTYEDSAVFYCAREAGSISDWYFDVWGTGTTVTVSS
VL: B9 VL with L11I, S28T, H31N, S48P, E98D, K108Q
B11: anti-TMEM106B antibody TM-45 (antibody, V domains shown)
VH: B9 VH
VL: B9 VL
B12: anti-TMEM106B antibody TM-37 (antibody, V domains shown)
VH: B9 VH with N31S, K39Q, I51V, Y60N, A68V, N77S, T97A
VL: B9 VL with L11V, L38S

Tests used:
human TMEM106B [1] = molecular target: T1, human TMEM106B (human, UniProt Q9NUM4 2-274); assay: FACS HeLa;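 further: flow cytometry of cells incubated with hybridoma supernatant or purified antibody at 10 µg/ml for 1 h on ice, propidium iodide–positive dead cells gated out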
T1 construct: Full-length, on transiently transfected HEK293 cells, or natively expressed on HeLa, U251 and A549 cells; also called huTMEM106B; huTMEM
Protocol: (§1) All cells were cultured in either T75 or T150 flasks. […] The enzyme was quenched by addition of fresh media, and the cells were then distributed into 96-well plates for FACS analysis.
(§2) FACS analysis was performed as follows. Each cell type was aliquoted in 96-well round bottom plates (2x10^5 cells per well), washed once with FACS buffer (PBS + 2% FBS + 1 mM EDTA), and incubated with 50 µL of hybridoma supernatant or purified antibody (10 µg/ml in FACS buffer) on ice for 1 hour. […] Following this secondary incubation, the cells were again washed 2x with ice-cold FACS buffer and resuspended in a final volume of 50 µL of FACS buffer + 0.25 µl/well propidium iodide (Fisher Scientific # BDB556463). Analysis was performed on a FACSCanto system (BD Biosciences) or iQue (Intellicyt), with sort gates drawn to exclude dead (i.e., propidium iodide positive) cells.
(§3) Data is presented as mean fluorescence intensity (MFI).

human TMEM106B [2] = molecular target: T1, human TMEM106B; assay: FACS A549, 1 ug/ml
Protocol: (§4) Purified anti-TMEM106B antibodies were evaluated for their binding affinity to various TMEM106B-expressing cell lines including HEK293 transiently transfected with human/cyno/mouse TMEM106B, as well as HeLa cells and A549 cells. Antibodies tested for this experiment were mouse IgGs purified from hybridoma supernatant. Affinity binding to cells was determined as follows. Briefly, 1x10^5 cells were aliquoted per well in 96-well round bottom plates and incubated with 50 µL of purified anti-TMEM106B antibody at various concentrations (10x dilutions starting at 10 µg/ml) in FACS buffer (PBS + 2% FBS + 1 mM EDTA). […] Sorting was performed on a iQue (Intellicyt), with sort gates drawn to exclude dead (propidium iodide +) cells. Binding data was analyzed using median fluorescent intensity (MFI) and graphed in Prism. Values presented are MFI.

GST (Pierce) [3] = molecular target: T2, GST (Pierce) (UniProt P08515 1-218 = GST, limits assumed); assay: array SPR, Ab immobilised
T2 construct: control for the GST part of the fusion protein; also called GST protein; Glutathione-S-transferase

human TMEM106B [4] = molecular target: T1, human TMEM106B; assay: FACS U251;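 further: flow cytometry of cells exposed to antibody (purified at 10 µg/mL, or hybridoma supernatant) for 1 h on ice, with propidium iodide-positive dead cells gated out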
human TMEM106B [5] = molecular target: T1, human TMEM106B; assay: FACS, HEK293 transfectants;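 on fold over negative controls: hybridoma supernatants incubated 30 min on ice with human TMEM106B-expressing HEK293 cells, binding read as anti-mouse-APC median fluorescence on live cells, relative to secondary-antibody-only wells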;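 on fold-change over parental HEK293: flow cytometry binding of hybridoma supernatants to HEK293 cells transiently expressing human, cyno or mouse TMEM106B, read as anti-mouse-APC median fluorescence, live cells only, 30 min on ice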
Protocol: Initial screening of the anti-TMEM106B hybridomas was performed as follows.
For screening of the hybridoma cell culture supernatants, humanTMEM106B-transfected HEK293 cells were aliquoted in 96-well round bottom plates (2x10^5 cells per well) and incubated with 50 µL of hybridoma cell culture supernatant on ice for 30 minutes. […] Cell sorting was performed on a FACS Canto system (BD Biosciences) or iQue (Intellicyt), with sort gates drawn to exclude dead (i.e., propidium iodide-positive) cells. Median fluorescence intensity (MFI) of anti-mouse-APC MFI on TMEM106B+ HEK293 cells was calculated for each clone, and those displaying a signal of at least 2-fold over background compared to a secondary-antibody only well were taken forward for further analysis and characterization.

human TMEM106B [6] = molecular target: T1, human TMEM106B; assay: FACS HEK+huTMEM, 0.1 ug/ml;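 further: flow cytometry binding of purified mouse IgG antibodies to HEK293 cells transiently expressing TMEM106B, read as median fluorescence intensity with propidium iodide positive dead cells gated out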
Protocol: as §4

mouse TMEM106B [7] = molecular target: T3, mouse TMEM106B (mouse, UniProt Q80X71 2-275); assay: FACS Neuro2a;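 further: flow cytometry of cells stained with antibody or hybridoma supernatant (purified antibody at 10 µg/ml) for 1 h on ice, propidium iodide–positive dead cells gated out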
T3 construct: on transiently transfected HEK293 cells, or natively expressed on mouse Neuro2a cells; also called moTMEM106B; murine TMEM106B
Protocol: as §1, §2, §3

human TMEM106B [8] = molecular target: T1, human TMEM106B; assay: FACS HEK+huTMEM, 0.01 ug/ml
Protocol: as §4

[9] = molecular target: T4, GST-fusion human TMEM106B truncated (human); assay: array SPR, Ab immobilised;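 further: antibodies amine-coupled on an MX-96 chip, antigen flowed at 500 nM top concentration in 5-fold serial dilutions, GST alone run as nonspecific-binding control, duplicate measurements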
T4 construct: also called GST-TMEM106B-truncated protein; GST-TMEM106B (truncated)

human TMEM106B [10] = molecular target: T1, human TMEM106B; assay: FACS HEK+huTMEM, 10 ug/ml;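 further: purified mouse IgG antibodies at 10 µg/ml bound to HEK293 cells transiently expressing human TMEM106B, measured by flow cytometry as median fluorescence intensity of propidium iodide negative live cells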
Protocol: as §4

human TMEM106B [11] = molecular target: T1, human TMEM106B; assay: FACS HEK+huTMEM, 1.0 ug/ml
human TMEM106B [12] = molecular target: T1, human TMEM106B; assay: FACS A549, 10 ug/ml
Protocol: as §4

human TMEM106B [13] = molecular target: T1, human TMEM106B; assay: FACS A549
Protocol: as §1, §2, §3

[14] = molecular target: T5, cynomolgus (cyno) TMEM106B (cynomolgus, UniProt Q9NUM4 2-274 (human entry)); assay: FACS, HEK293 transfectants;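 further: flow cytometry binding of hybridoma supernatants to HEK293 cells transiently expressing human, cyno or mouse TMEM106B, read as anti-mouse-APC median fluorescence, live cells only, 30 min on ice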
T5 construct: on transiently transfected HEK293 cells

mouse TMEM106B [15] = molecular target: T3, mouse TMEM106B; assay: FACS, HEK293 transfectants;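 further: flow cytometry binding of hybridoma supernatants to HEK293 cells transiently expressing human, cyno or mouse TMEM106B, read as anti-mouse-APC median fluorescence, live cells only, 30 min on ice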
human TMEM106B [16] = molecular target: T1, human TMEM106B; assay: FACS, HEK293 transfectants; remark: listed apart in the source;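 on fold over negative controls: hybridoma supernatants incubated 30 min on ice with human TMEM106B-expressing HEK293 cells, binding read as anti-mouse-APC median fluorescence on live cells, relative to secondary-antibody-only wells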;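 on fold-change over parental HEK293: flow cytometry binding of hybridoma supernatants to HEK293 cells transiently expressing human, cyno or mouse TMEM106B, read as anti-mouse-APC median fluorescence, live cells only, 30 min on ice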
GST (Pierce) [17] = molecular target: T2, GST (Pierce); assay: ELISA, coated GST;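 further: ELISA on plates coated with GST alone at 1-10 µg/ml, antibodies applied at 100-1000x dilution, bound antibody detected by peroxidase substrate colour after acid stop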

Row | Binder | MFI (human TMEM106B [1]) | MFI (human TMEM106B [2]) | binding result (GST (Pierce) [3]) | MFI (human TMEM106B [4]) | fold over negative controls (human TMEM106B [5]) [fold] | MFI (human TMEM106B [6]) | MFI (mouse TMEM106B [7]) | MFI (human TMEM106B [8]) | Kd [9] | koff [9] | kon [9] | MFI (human TMEM106B [10]) | MFI (human TMEM106B [11]) | MFI (human TMEM106B [12]) | MFI (human TMEM106B [13]) | fold-change over parental HEK293 [14] [fold] | fold-change over parental HEK293 (mouse TMEM106B [15]) [fold] | fold-change over parental HEK293 (human TMEM106B [16]) [fold] | binding result (GST (Pierce) [17])
1 | B1 | 241 | 3270 | no binding | 370 | > 2 | 22600 | 181 | 4080 | 6 nM and 6.8 nM | 9e-05 s⁻¹ and 0.00011 s⁻¹ | 15000 M⁻¹ s⁻¹ and 16000 M⁻¹ s⁻¹ | 48700 | 55400 | 4200 | 982 | 14.7 | 1.04 | 11.5 | 
2 | B2 | 219 | 1580 | no binding | 346 | > 2 | 21600 | 292 | 4050 | 3.1 nM and 3.9 nM | 5.3e-05 s⁻¹ and 5.6e-05 s⁻¹ | 17000 M⁻¹ s⁻¹ and 14000 M⁻¹ s⁻¹ | 38200 | 39900 | 2450 | 677 | 16.4 | 28.5 | 16.7 | 
3 | B3 |  |  | no binding |  |  |  |  |  |  |  |  |  |  |  |  |  |  |  | 
4 | B4 |  |  | no binding |  |  |  |  |  |  |  |  |  |  |  |  |  |  |  | 
5 | B5 | 2540 | 4880 |  | 1540 | > 2 | 28300 | 2710 | 3940 | 4.2 nM and 5.2 nM | 8.3e-05 s⁻¹ and 8.4e-05 s⁻¹ | 20000 M⁻¹ s⁻¹ and 16000 M⁻¹ s⁻¹ | 56400 | 62100 | 7090 | 1990 | 22.3 | 8.52 | 10.7 | no binding
6 | B6 | 1070 | 883 |  | 442 | > 2 | 9870 | 1200 | 1670 |  |  | 9900 M⁻¹ s⁻¹ and 10000 M⁻¹ s⁻¹ | 40800 | 40000 | 1810 | 647 | 47.5 | 15.5 | 17.5 | no binding
7 | B7 |  |  | no binding |  |  |  |  |  |  |  |  |  |  |  |  |  |  |  | 
8 | B8 |  |  | no binding |  |  |  |  |  |  |  |  |  |  |  |  |  |  |  | 
9 | B9 | 215 | 1780 | no binding | 326 |  | 16700 | 237 | 2070 | 33 nM and 24 nM |  |  | 60100 | 58100 | 3300 | 947 |  |  |  | 
10 | B10 |  | 3610 | no binding |  | > 2 | 19200 |  | 3850 | 4.1 nM and 2.2 nM | 5.8e-05 s⁻¹ and 3e-05 s⁻¹ | 14000 M⁻¹ s⁻¹ | 51900 | 55600 | 5330 |  |  |  |  | 
11 | B11 | 191 | 1860 | no binding | 517 |  | 21300 | 187 | 2500 | 19 nM and 18 nM |  |  | 58100 | 57600 | 3240 | 819 |  |  |  | 
12 | B12 | 254 | 2980 | no binding | 408 |  | 29400 | 208 | 3920 | 2.6 nM and 6.3 nM |  |  | 50500 | 58700 | 4210 | 1040 |  |  |  | 
